Data reported in PMC4888247.
Values joined by “and” are separate entries in the source; they are usually repeats but may differ in a detail not shown here. Equal entries are not always repeated.

How the values were obtained:
human S100A8 (human) [1] = target: human S100A8 (human) (UniProt P05109); experiment: crystal structure; crystal form 2, C2221, 2.1 A; Zn2+/Ca2+-bound with a (Zn)2-cacodylate complex; 5 mM ZnCl2, 0.1 M Na cacodylate pH 6.5, 8 % PEG 8000; four molecules per asymmetric unit
human S100A8 (human) [2] = target: human S100A8 (human) (UniProt P05109); experiment: SEC; 24 ml Superdex 75, 20 mM HEPES pH 7.5, 200 mM NaCl, 5 mM CaCl2 (calcium only, no zinc); sizes from a calibration curve with protein standards
human S100A8 (human) [3] = target: human S100A8 (human) (UniProt P05109); experiment: crystal structure; crystal form 1, P212121, 2.2 A; Zn2+/Ca2+-bound (3 mM ZnCl2 added); 0.2 M ammonium acetate, 0.1 M Na acetate pH 4.0, 15 % PEG 3350, 0.4 % 2,2,2-trifluoroethanol; eight molecules per asymmetric unit

stoichiometry N (human S100A8 (human) [1]): 4
stoichiometry N (human S100A8 (human) [2]): 4 and 2
stoichiometry N (human S100A8 (human) [3]): 4
Substance: human S100A8 (from UniProt P05109 2-93) (natural protein)
